Measurements from IntAct's records for PubMed 16368681.

B1: Protein disulfide-isomerase (Saccharomyces cerevisiae), P17967 (parent)
chain: MKFSAGAVLSWSSLLLASSVFAQQEAVAPEDSAVVKLATDSFNEYIQSHDLVLAEFFAPWCGHCKNMAPEYVKAAETLVEKNITLAQIDCTENQDLCMEHNIPGFPSLKIFKNSDVNNSIDYEGPRTAEAIVQFMIKQSQPAVAVVADLPAYLANETFVTPVIVQSGKIDADFNATFYSMANKHFNDYDFVSAENADDDFKLSIYLPSAMDEPVVYNGKKADIADADVFEKWLQVEALPYFGEIDGSVFAQYVESGLPLGYLFYNDEEELEEYKPLFTELAKKNRGLMNFVSIDARKFGRHAGNLNMKEQFPLFAIHDMTEDLKYGLPQLSEEAFDELSDKIVLESKAIESLVKDFLKGDASPIVKSQEIFENQDSSVFQLVGKNHDEIVNDPKKDVLVLYYAPWCGHCKRLAPTYQELADTYANATSDVLIAKLDHTENDVRGVVIEGYPTIVLYPGGKKSESVVYQGSRSLDSLFDFIKENGHFDVDGKALYEEAQEKAAEEADADAELADEEDAIHDEL
B2: Protein disulfide-isomerase (Saccharomyces cerevisiae), P17967 (parent)
chain: B1 chain
partner: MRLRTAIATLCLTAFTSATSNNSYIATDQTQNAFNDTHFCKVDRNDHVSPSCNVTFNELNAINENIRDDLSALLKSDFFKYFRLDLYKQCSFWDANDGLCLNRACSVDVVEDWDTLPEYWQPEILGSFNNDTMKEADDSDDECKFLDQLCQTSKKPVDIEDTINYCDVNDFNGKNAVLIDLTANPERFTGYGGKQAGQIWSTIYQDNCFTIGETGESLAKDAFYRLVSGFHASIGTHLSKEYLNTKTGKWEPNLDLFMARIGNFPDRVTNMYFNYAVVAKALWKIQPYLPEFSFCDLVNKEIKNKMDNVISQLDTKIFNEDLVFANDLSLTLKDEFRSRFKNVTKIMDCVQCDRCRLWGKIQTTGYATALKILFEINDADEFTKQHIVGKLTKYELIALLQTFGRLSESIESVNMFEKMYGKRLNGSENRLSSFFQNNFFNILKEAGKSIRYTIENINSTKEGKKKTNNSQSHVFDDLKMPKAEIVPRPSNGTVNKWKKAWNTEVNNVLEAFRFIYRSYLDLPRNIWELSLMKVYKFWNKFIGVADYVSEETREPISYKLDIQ

Variants of: B1
Conditions: with rnas1_bovin RNASE1, P61823
Sequence of rnas1_bovin RNASE1, P61823 (P61823 whole entry): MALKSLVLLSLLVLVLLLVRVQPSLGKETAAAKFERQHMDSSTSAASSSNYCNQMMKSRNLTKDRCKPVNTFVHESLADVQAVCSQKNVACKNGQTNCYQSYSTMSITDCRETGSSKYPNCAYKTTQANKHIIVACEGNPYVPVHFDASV

Row | Variant | effect of a mutation on the interaction
1 | MKFSAGAVLSWSSLLLASSVFAQQEAVAPEDSAVVKLATDSFNEYIQSHDLVLAEFFAPWCGHCKNMAPEYVKAAETLVEKNITLAQIDCTENQDLCMEHNIPGFPSLKIFKNSDVNNSIDYEGPRTAEAIVQFMIKQSQPAVAVVADLPAYLANETFVTPVIVQSGKIDADFNATFYSMANKHFNDYDFVSAENADDDFKLSIYLPSAMDEPVVYNGKKADIADADVFEKWLQVEALPYFGEIDGSVFAQYVESGLPLGYLFYNDEEELEEYKPLFTELAKKNRGLMNFVSIDARKFGRHAGNLNMKEQFPLFAIHDMTEDLKYGLPQLSEEAFDELSDKIVLESKAIESLVKDFLKGDASPIVKSQEIFENQDSSVFQLVGKNHDEIVNDPKKDVLVLYYAPWAGHAKRLAPTYQELADTYANATSDVLIAKLDHTENDVRGVVIEGYPTIVLYPGGKKSESVVYQGSRSLDSLFDFIKENGHFDVDGKALYEEAQEKAAEEADADAELADEEDAIHDEL [C406A;C409A] | decreasing interaction
2 | MKFSAGAVLSWSSLLLASSVFAQQEAVAPEDSAVVKLATDSFNEYIQSHDLVLAEFFAPWAGHAKNMAPEYVKAAETLVEKNITLAQIDCTENQDLCMEHNIPGFPSLKIFKNSDVNNSIDYEGPRTAEAIVQFMIKQSQPAVAVVADLPAYLANETFVTPVIVQSGKIDADFNATFYSMANKHFNDYDFVSAENADDDFKLSIYLPSAMDEPVVYNGKKADIADADVFEKWLQVEALPYFGEIDGSVFAQYVESGLPLGYLFYNDEEELEEYKPLFTELAKKNRGLMNFVSIDARKFGRHAGNLNMKEQFPLFAIHDMTEDLKYGLPQLSEEAFDELSDKIVLESKAIESLVKDFLKGDASPIVKSQEIFENQDSSVFQLVGKNHDEIVNDPKKDVLVLYYAPWCGHCKRLAPTYQELADTYANATSDVLIAKLDHTENDVRGVVIEGYPTIVLYPGGKKSESVVYQGSRSLDSLFDFIKENGHFDVDGKALYEEAQEKAAEEADADAELADEEDAIHDEL [C61A;C64A] | decreasing interaction

Variants of: B2
Conditions: with ero1_yeast ERO1, Q03103

Row | Variant | effect of a mutation on the interaction
3 | MKFSAGAVLSWSSLLLASSVFAQQEAVAPEDSAVVKLATDSFNEYIQSHDLVLAEFFAPWCGHCKNMAPEYVKAAETLVEKNITLAQIDCTENQDLCMEHNIPGFPSLKIFKNSDVNNSIDYEGPRTAEAIVQFMIKQSQPAVAVVADLPAYLANETFVTPVIVQSGKIDADFNATFYSMANKHFNDYDFVSAENADDDFKLSIYLPSAMDEPVVYNGKKADIADADVFEKWLQVEALPYFGEIDGSVFAQYVESGLPLGYLFYNDEEELEEYKPLFTELAKKNRGLMNFVSIDARKFGRHAGNLNMKEQFPLFAIHDMTEDLKYGLPQLSEEAFDELSDKIVLESKAIESLVKDFLKGDASPIVKSQEIFENQDSSVFQLVGKNHDEIVNDPKKDVLVLYYAPWAGHAKRLAPTYQELADTYANATSDVLIAKLDHTENDVRGVVIEGYPTIVLYPGGKKSESVVYQGSRSLDSLFDFIKENGHFDVDGKALYEEAQEKAAEEADADAELADEEDAIHDEL [C406A;C409A] | decreasing interaction
4 | MKFSAGAVLSWSSLLLASSVFAQQEAVAPEDSAVVKLATDSFNEYIQSHDLVLAEFFAPWAGHAKNMAPEYVKAAETLVEKNITLAQIDCTENQDLCMEHNIPGFPSLKIFKNSDVNNSIDYEGPRTAEAIVQFMIKQSQPAVAVVADLPAYLANETFVTPVIVQSGKIDADFNATFYSMANKHFNDYDFVSAENADDDFKLSIYLPSAMDEPVVYNGKKADIADADVFEKWLQVEALPYFGEIDGSVFAQYVESGLPLGYLFYNDEEELEEYKPLFTELAKKNRGLMNFVSIDARKFGRHAGNLNMKEQFPLFAIHDMTEDLKYGLPQLSEEAFDELSDKIVLESKAIESLVKDFLKGDASPIVKSQEIFENQDSSVFQLVGKNHDEIVNDPKKDVLVLYYAPWCGHCKRLAPTYQELADTYANATSDVLIAKLDHTENDVRGVVIEGYPTIVLYPGGKKSESVVYQGSRSLDSLFDFIKENGHFDVDGKALYEEAQEKAAEEADADAELADEEDAIHDEL [C61A;C64A] | decreasing interaction
